Source: US9433687B2, “Anti-Notch3 antibodies and antibody-drug conjugates” (Pfizer Inc., priority 2012, dated 2016)
Values joined by “and” are separate entries in the source; they are usually repeats but may differ in a detail not shown here. Identical values can stand only once.

How the values were obtained:
[1] = biological target: T1, MDA-MB-468/hNotch3 (Homo sapiens, UniProt Q9UM47); assay: Flow cytometry (FACS) binding, MDA-MB-468/hNotch3; conditions: 4 μg/mL antibody
T1 construct: cell lines engineered to over-express full length human Notch3 protein: MDA-MB-468/hNotch3 and U2OS/hNotch3; expressed in transfected cells; host or cells: MDA-MB-468
Protocol: (§1) Unconjugated anti-Notch3 antibodies, hu28 and hu75, were examined for cell surface binding activity to Notch3 expressing cell lines by flow cytometry. Fluorescence activated cell sorting (FACS) analysis was conducted according to standard procedures. Cells were rinsed in HBSS with calcium chloride and magnesium chloride (herein termed HBSS++), harvested using trypsin without EDTA and neutralized with medium containing FBS. Cells were incubated on ice for 30 minutes with 4 μg/mL anti-Notch3 antibodies, hu28 and hu75, in HBSS++containing 3% HICS (heat-inactivated calf serum). Cells were washed three times with cold HBSS++, 3% HICS buffer. Cells were incubated in allophycocyanin-conjugated AffiniPure F(ab′)2 fragment goat anti-human IgG, Fc fragment secondary antibody (Jackson ImmunoResearch Laboratories, Inc., West Grove, Pa.) at 10 μg/mL for 30 minutes on ice in the dark. Cells were washed once with cold HBSS++/3% HICS buffer. Cells were resuspended in HBSS-++/3% HICS, 25 mM HEPES, 1 mM MgCl2 and 25 μg/ml DNaseI. 7-AAD (7-Amino-Actinomycin D) was added for exclusion of nonviable cells. Live cells were analyzed on a BD FACSCalibur flow cytometer (BD Biosciences, San Jose, Calif.). Mean fluorescence intensity (MFI) from channel FL-4 was calculated with FlowJo flow cytometry analysis software (Ashland, Oreg.).

[2] = biological target: T2, MDA-MB-468 (Homo sapiens, UniProt Q9UM47); assay: Flow cytometry (FACS) binding, MDA-MB-468; conditions: 4 μg/mL antibody
T2 construct: endogenous Notch3 expressing cell lines, HCC2429 and MDA-MB-468; endogenous in cells; host or cells: MDA-MB-468
Protocol: as §1

[3] = biological target: T3, cell surface Notch3 on OVCAR3 cells (Homo sapiens, UniProt Q9UM47); assay: Cell-based ELISA, OVCAR3 cells; conditions: Table 29; LB = lacked binding
T3 construct: Notch3 endogenously expressing cells MDA-MB-468, HCC2429 and OVCAR3; endogenous in cells; host or cells: OVCAR3

[4] = biological target: T4, full-length human Notch3 expressed on the cell surface of U2OS/hNotch3 cells (Homo sapiens, UniProt Q9UM47); assay: Cell-based ELISA, U2OS/hNotch3 cells; conditions: Table 29; two value columns; LB = lacked binding
T4 construct: U-2 OS cells stably over-expressing human or mouse full length Notch3 protein on cell surface; expressed in transfected cells; host or cells: U-2 OS (human osteosarcoma)
Protocol: Humanized hu28 and hu75, and rat-human chimeric, ch28 and ch75, anti-Notch3 antibodies were screened for cell surface Notch3 binding in a cell-based ELISA. U-2 OS cells stably over-expressing human or mouse full length Notch3 protein on cell surface (hereinafter U2OS/hNotch3 and U2OS/mNotch3, respectively) were plated at 50,000 cells/well in 96 well plates (white opaque, BD/VWR) the day before ELISA assay. On the day of the ELISA, culture media was removed from wells and serially diluted (1:3 in blocking buffer) antibody solutions were applied to the plate. Plates were incubated at room temperature for 2 hours before being washed with PBS-Mg/Ca. HRP-conjugated secondary antibody was then applied and incubated with cells for 1 hour as described above for recombinant protein ELISA. Plates were washed with PBS-Mg/Ca before being developed with Pico-Chemiluminescent developing kit (Thermal Scientific), and chemiluminescence measurements were performed per manufacturer's instructions. Data plotting and analyses were performed with Microsoft Excel and Graphpad-Prism software.
Unconjugated anti-Notch3 antibodies, anti-Notch3 ADCs and a negative control antibody (huNeg8.8) were screened for cell surface binding activity to Notch3 expressing cell lines in a cell-based ELISA. […]

[5] = tested on: HCC2429 (lung cancer); assay: In vitro cytotoxicity (MTS), HCC2429; type: cell-based, human; conditions: HCC2429; data not shown
In short: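 Cells with endogenous Notch3 cultured four days with increasing concentrations of anti-Notch3 ADCs (chimeric or humanized antibodies with various linker-payloads, including cysteine-mutant conjugates); non-targeted ADCs served as specificity controls. Viability by MTS; IC50 from logistic non-linear regression, expressed as ng Ab/mL, with DAR given.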

[6] = biological target: T5, OVCAR3 (Homo sapiens, UniProt Q9UM47); assay: Flow cytometry (FACS) binding, OVCAR3; conditions: 4 μg/mL antibody
T5 construct: Notch3 endogenously expressing cells MDA-MB-468, HCC2429 and OVCAR3; endogenous in cells; host or cells: OVCAR3
Protocol: as §1

T4 sequence (Q9UM47 40-2321): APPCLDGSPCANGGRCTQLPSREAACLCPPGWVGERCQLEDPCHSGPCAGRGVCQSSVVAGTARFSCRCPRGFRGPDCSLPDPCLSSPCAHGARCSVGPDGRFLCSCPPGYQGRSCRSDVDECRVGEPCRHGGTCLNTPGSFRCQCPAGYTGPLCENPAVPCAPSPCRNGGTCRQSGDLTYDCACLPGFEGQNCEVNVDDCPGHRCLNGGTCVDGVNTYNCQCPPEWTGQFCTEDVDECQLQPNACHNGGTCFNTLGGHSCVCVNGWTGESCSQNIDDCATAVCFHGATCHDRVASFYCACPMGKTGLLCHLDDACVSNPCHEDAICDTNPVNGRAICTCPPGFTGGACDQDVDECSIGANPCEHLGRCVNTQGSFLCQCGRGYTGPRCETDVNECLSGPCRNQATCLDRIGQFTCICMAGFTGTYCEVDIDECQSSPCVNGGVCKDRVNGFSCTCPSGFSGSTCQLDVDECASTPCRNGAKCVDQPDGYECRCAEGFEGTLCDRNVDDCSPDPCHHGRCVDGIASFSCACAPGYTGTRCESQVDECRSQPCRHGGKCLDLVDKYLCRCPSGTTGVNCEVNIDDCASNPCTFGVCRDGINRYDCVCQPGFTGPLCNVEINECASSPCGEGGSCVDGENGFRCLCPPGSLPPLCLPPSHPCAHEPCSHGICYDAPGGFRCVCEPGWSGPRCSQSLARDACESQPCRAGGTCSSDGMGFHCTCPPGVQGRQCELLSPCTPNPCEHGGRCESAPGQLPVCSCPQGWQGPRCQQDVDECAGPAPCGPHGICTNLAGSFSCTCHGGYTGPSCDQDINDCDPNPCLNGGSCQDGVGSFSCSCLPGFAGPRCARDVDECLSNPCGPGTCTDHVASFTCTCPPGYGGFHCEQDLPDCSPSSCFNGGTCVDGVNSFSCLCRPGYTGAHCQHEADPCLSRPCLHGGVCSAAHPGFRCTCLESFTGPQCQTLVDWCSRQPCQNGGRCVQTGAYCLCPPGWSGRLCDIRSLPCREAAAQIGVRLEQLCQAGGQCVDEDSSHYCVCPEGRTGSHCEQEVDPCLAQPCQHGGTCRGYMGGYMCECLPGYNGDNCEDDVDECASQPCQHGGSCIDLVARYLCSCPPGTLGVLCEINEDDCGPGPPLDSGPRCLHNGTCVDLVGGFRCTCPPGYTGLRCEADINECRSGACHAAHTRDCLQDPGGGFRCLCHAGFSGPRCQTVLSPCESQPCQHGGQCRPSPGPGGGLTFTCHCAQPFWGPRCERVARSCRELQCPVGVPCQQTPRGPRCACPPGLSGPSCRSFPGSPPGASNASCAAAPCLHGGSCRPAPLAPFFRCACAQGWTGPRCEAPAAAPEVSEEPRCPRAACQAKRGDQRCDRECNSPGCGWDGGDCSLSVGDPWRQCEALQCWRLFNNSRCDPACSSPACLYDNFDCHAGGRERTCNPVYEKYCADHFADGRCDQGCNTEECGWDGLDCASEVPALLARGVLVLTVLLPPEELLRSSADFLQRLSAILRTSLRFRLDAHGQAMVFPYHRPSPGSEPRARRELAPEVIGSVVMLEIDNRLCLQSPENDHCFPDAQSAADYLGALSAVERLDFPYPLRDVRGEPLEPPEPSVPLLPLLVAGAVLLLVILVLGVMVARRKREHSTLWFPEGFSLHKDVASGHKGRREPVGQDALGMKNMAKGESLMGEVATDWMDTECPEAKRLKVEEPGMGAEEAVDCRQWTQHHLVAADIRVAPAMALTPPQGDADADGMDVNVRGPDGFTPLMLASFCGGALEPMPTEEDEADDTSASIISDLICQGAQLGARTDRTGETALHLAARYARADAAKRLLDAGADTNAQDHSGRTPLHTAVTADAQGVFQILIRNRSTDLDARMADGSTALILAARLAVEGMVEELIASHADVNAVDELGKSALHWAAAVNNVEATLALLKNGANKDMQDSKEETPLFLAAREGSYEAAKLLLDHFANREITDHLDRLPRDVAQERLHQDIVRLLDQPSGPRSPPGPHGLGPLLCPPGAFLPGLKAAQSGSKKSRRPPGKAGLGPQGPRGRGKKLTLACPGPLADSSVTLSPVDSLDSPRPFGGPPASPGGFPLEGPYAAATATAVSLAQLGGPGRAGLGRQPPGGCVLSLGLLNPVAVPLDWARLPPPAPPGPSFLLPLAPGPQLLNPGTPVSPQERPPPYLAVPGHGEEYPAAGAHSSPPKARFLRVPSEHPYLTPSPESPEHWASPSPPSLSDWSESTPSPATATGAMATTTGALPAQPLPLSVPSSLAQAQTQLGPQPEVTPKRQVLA
T2 sequence (Q9UM47 40-2321): as above
T3 sequence (Q9UM47 40-2321): as above
T1 sequence (Q9UM47 40-2321): as above
T5 sequence (Q9UM47 40-2321): as above

MFI [1]: 1192
MFI [2]: 557
EC50 [3]: 0.46 nM
EC50 [4]: 0.3 nM and 0.26 nM
MFI [6]: 116
B1: hu28 VH1.0/VL1.0: humanized r28 variant VH1.0/VL1.0, anti-Notch3 antibody (VH SEQ ID NO: 13, VL SEQ ID NO: 25) (antibody, V domains shown)
VH: EVQLVESGGGLVQPGGSLRLSCAASGFTFRDYGMTWVRQAPGKGLEWVAYISSGSNYIYYAEAVKGRFTISRDNAKNSLYLQMNSLRAEDTAVYYCARRGPFVLDAWGQGTLVTVSS
VL: DIQMTQSPSSLSASVGDRVTITCKASQSINRYLHWYQQKPGKAPKLLIYNANGLQTGVPSRFSGSGSGTDFTLTISSLQPEDFATYYCLQHNTWPDTFGGGTKVEIK
effect of unconjugated antibody on viability [5]: did not affect the viability
